Laboratory results: PMC5397179

Assays:
[1] = system: PcrA-sCt (C-terminal Tudor-like domain) (Geobacillus stearothermophilus); test: EMSA; conditions: no binding detected up to 5 uM; 2.5 mM Mg2+; EMSA: 50 nM (so in the source) HEPES-KOH pH 7.5, 100 mM KCl, 2.5 mM MgCl2, 0.1 mg/mL BSA, 1 mM (reagent truncated in material); 20 nM DNA; TBE-PAGE; temperature not …
RNAP subunit α = test: pulldown quantified by mass spectrometry; conditions: parent: est. 6.2; read off a plot
RNAP subunit β' = test: pulldown quantified by mass spectrometry; conditions: parent: est. 12; read off a plot
RNAP subunit β = test: pulldown quantified by mass spectrometry; conditions: parent: est. 16; read off a plot
RNAP subunit δ = test: pulldown quantified by mass spectrometry; conditions: parent: est. 12; read off a plot
RNAP subunit ω = test: pulldown quantified by mass spectrometry; conditions: parent: est. 13; read off a plot

other: Relative Ion Score (RNAP subunit α)	other: Relative Ion Score (RNAP subunit β')	other: Relative Ion Score (RNAP subunit β)	other: Relative Ion Score (RNAP subunit δ)	other: Relative Ion Score (RNAP subunit ω)	Substance	Kd [1]
–	–	–	–	–	147 base ssDNA oligonucleotide	> 5 µM
–	–	–	–	–	147 bp dsDNA	> 5 µM
2.7	3.6	4.5	3.1	4.7	Biotinylated full length PcrA (Geobacillus stearothermophilus), wild type (from UniProt P56255) K712A	–
2.7	2.8	4.1	3.6	2.6	Biotinylated full length PcrA (Geobacillus stearothermophilus), wild type (from UniProt P56255) L714A	–
